Assay results: patent US12497460B2, “Anti-MSR1 antibodies and methods of use thereof” (REGENERON PHARMACEUTICALS, INC., priority 2018, dated 2025)
Marks after values point to notes of the source that are not given here.

T1: RAW264.7 cells (MSR1 positive) (Mus musculus, UniProt P30204)
T1 construct: using MSR1 positive RAW264.7 cells (ATCC, Catalog #TIB-71); host or cells: RAW264.7
T1 sequence (P30204 1-458): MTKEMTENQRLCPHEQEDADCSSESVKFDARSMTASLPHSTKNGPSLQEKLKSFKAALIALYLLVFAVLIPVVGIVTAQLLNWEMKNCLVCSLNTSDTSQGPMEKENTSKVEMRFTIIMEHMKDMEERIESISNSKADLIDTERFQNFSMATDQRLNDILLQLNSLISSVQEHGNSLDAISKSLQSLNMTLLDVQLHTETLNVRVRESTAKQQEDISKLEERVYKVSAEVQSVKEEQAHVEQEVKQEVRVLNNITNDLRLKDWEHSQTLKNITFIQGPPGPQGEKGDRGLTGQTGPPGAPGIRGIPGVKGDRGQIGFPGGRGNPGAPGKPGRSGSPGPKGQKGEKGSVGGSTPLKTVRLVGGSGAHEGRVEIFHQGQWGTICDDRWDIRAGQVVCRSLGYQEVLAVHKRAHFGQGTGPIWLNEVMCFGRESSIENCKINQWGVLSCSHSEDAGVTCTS

B1: H1H21234N-N297Q-LP13 (conjugate)
VH: QVQLQESGPGLVKPSETLSLTCTVTGGSISRNYWSWIRQPPGKGLEWIGYIYYSGSIDYNPSLKSRVTISVDTSKNQFSLKLSSMTAADTAVYYCARDRWNWKYGMDVWGQGTTVIVSS
VL: EIVLTQSPGTLSLSPGERATLSCRASQTVRNNYLAWYHQKPGQAPRLLIYGASSRATGIPDRFSGSGSGTDFTLTISRLEPEDFTVYYCHQYGNSPWTFGQGTKMEIKR
B2: H1H21227N-N297Q: "modified versions of 21227N (H1H21227N-N297Q and H1H21227N-N297D)"; anti-MSR1 antibody "with a N297Q single point mutation" (antibody, V domains shown)
VH: QVQLVQSGAEVKKPGASVKVSCKVSGYTLTELSIHWVRQVPGKGLEWMGGFDPEEGETIFAQEFRDRVTLTEDTSPDTAYMELSSLKSEDAAVYYCTTPRYCNNGICYDYWGQGTLVTVSS
VL: DIQMTQSPSSLSASVGDRVTITCRASQSISNYLNWYQQKPGKAPKLLIYTASSLQSGVPSRFSGSGSGTDFTLTISSLQTEDFATYYCQQSYSNFPITFGQGTRLEIKR

Key:
[1] = test system: Msr1^hu/hu ApoE^−/− mice, peritoneal cells; assay: Ex vivo LPS-induced cytokine production by peritoneal cells after in vivo dosing; design: species or system mouse; conditions: for Cytokine IL-6 / Cytokine KC-GRO / Cytokine TNF-α: ex vivo LPS
Protocol: To examine the anti-inflammatory effect of the anti-MSR1 antibody-steroid conjugates, an ex-vivo and in vivo LPS-induced inflammatory immune response model was performed.
Generation of a mouse inflammatory immune response model. Mice homozygously expressing human MSR1 extracellular domain in place of the mouse MSR1 extracellular domain and with a homozygous deletion of the ApoE gene were utilized (resulting mice referred to as Msr1^hu/hu ApoE^−/− mice).
Assay protocol for ex vivo LPS-induced responses. In ex vivo LPS challenge experiments, mice were intraperitoneally administered with 10 μL/g of anti-MSR1 antibody-steroid conjugates (H1H21234N-N297Q-LP13), isotype control steroid conjugate (Isotype control-LP13), unconjugated anti-MSR1 antibody (H1H21234N-N297Q) and isotype control antibodies at different time points (24, 48, and 72 hours) prior to harvesting the peritoneal cells from peritoneal cavity. […] All mice were sacrificed at 0 hour time point and peritoneal cells were obtained from the peritoneum by the peritoneal lavage technique. In brief, 5 mL of ice cold 1×PBS (ThermoFisher Scientific, Cat #20012027) containing 2% BSA (Gibco, Cat #A9576) and 0.6 mM EDTA (ThermoFisher Scientific, Cat #15575020) were injected into the peritoneal cavity using 27 g needle. […] The resuspended cells were plated at 500,000 cells per well in 24-well tissues culture plates and incubated with or without 10 ng/mL of LPS for 18 hours.
Measurement of cytokines at 18 hours post-LPS ex vivo challenge. Supernatants were collected into 96-well round bottom tissue culture plates at 18 hours post-ex vivo LPS challenge and stored at […] until further analysis. Cytokine concentrations in the supernatants were measured using a Proinflammatory Panel 1 (mouse) multiplex immunoassay kit (MesoScale Diagnostics, Cat #K15048D) according to manufacturer's instructions. Electrochemiluminescence was read on a Meso Scale Diagnostics SECTOR® instrument. Data analysis was performed using GraphPad Prism™ software. Statistical significance within the groups was determined by one-way Anova with Turkey's multiple comparison post-test (*p<0.01; **p<0.001; ***p<0.0001).

[2] = target: T1, RAW264.7 cells (MSR1 positive); assay: Flow cytometry binding to cell surface-expressed mouse MSR1; assay type: cell-based; conditions: 10 μg/mL antibody
Protocol: To block binding to Fc receptors, RAW264.7 cells were incubated for 30 minutes at 4° C. with 500 μg/mL mouse IgG (Jackson ImmunoResearch, Cat #015-000-003) diluted in staining buffer, while B16F10.9 cells remained in staining buffer. Following Fc receptor blocking, 10 μg/mL of anti-MSR1 antibodies or an isotype control antibody were added to the cells and were subsequently incubated for 30 minutes on ice. […] The signal to noise (S/N) was determined by calculating the ratio of the anti-MSR1 antibodies or the control antibodies MFI to the unstained sample MFI (Table 11).

[3] = administered 24 hours before peritoneal cell isolation
[4] = administered 48 hours before peritoneal cell isolation
[5] = administered 72 hours before peritoneal cell isolation

Molecule | Cytokine IL-6 [1, 3] | Cytokine KC-GRO [1, 3] | Cytokine TNF-α [1, 3] | Cytokine KC-GRO [1, 4] | Cytokine TNF-α [1, 4] | Cytokine IL-6 [1, 5] | Cytokine KC-GRO [1, 5] | Cytokine TNF-α [1, 5] | effect on ex vivo LPS-induced cytokine production (IL-6, KC-GRO, TNF-α) by peritoneal cells ([1]; i.p. dosing 24, 48, 72 hours (conjugates, antibodies) or 2 hours (free steroids) before cell harvest, 10 ng/mL LPS 18 hours) | RAW264.7 MFI [2] | RAW264.7 S/N [2] | signal to noise (S/N), MFI over unstained sample MFI [2]
B1 | 21.1 ± 1.38**** ng/mL | 9.3 ± 1.7 ng/mL | 0.26 ± 0.08*** ng/mL | 6.3 ± 2.3* ng/mL | 0.58 ± 0.06* ng/mL | 50.7 ± 14.1* ng/mL | 13.1 ± 1.1 ng/mL | 0.47 ± 0.1** ng/mL | efficacious in inhibiting LPS-induced cytokine production by peritoneal cells in a time-dependent manner |  |  | 
B2 |  |  |  |  |  |  |  |  |  | 12810 | 5 | 5
